# T1: human IL-2 receptor (IL-2Rα/IL-2Rβ/γc) (human, UniProt P01589 22-272; P14784 27-551; P31785 23-369)
# T1 sequence 1: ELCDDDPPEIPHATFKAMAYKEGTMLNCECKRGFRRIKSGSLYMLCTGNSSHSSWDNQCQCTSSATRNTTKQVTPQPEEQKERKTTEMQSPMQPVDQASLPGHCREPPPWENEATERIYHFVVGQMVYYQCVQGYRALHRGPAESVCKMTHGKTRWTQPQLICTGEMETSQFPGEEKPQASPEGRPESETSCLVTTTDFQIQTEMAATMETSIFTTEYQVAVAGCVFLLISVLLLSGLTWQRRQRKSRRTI
# T1 sequence 2: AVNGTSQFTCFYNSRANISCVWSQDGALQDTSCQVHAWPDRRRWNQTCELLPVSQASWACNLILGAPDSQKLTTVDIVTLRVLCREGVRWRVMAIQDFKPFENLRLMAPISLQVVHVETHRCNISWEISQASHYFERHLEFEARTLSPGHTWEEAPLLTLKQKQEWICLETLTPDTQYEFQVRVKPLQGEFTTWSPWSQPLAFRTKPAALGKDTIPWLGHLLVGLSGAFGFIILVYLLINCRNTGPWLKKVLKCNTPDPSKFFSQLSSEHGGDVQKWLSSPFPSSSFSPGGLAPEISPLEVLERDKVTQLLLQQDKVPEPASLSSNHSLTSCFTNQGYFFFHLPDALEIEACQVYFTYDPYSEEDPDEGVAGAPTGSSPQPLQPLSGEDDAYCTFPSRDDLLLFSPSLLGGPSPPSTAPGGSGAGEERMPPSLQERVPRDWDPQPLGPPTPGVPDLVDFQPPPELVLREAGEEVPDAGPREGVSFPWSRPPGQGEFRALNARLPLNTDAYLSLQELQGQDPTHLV
# T1 sequence 3: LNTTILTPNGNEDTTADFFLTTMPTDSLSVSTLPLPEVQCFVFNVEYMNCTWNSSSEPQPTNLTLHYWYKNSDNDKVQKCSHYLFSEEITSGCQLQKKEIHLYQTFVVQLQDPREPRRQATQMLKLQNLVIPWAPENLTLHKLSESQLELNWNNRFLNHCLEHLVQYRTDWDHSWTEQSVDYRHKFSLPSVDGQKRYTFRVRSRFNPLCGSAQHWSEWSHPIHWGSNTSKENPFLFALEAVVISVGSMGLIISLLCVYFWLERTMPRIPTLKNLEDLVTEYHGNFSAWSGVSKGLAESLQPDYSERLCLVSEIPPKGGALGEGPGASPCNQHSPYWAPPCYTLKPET
# B1: DC00062 (other)
# chain 1: EVQLVESGGGLVQTGGSLRLSCAASGGTFSRDAMAWFRQVPGKEREFVALISWSGATTNYADSVKGRFAISRDNGKNTVYLQMNRLKPADTAIYYCAADRRPMGSRSYFEPTEYDDWGQGTQVTVSSGGGGSGGGGSGGGGSQVQLVESGGGLVQPGGSLRLSCATSGFTFRNNFMSWVRQAPGKGLEWVSTISYGGESTTYAESVKGRFTISRDNAKNTLYLQMNNLKPEDTAVYYCAKATSYDSIRSGSRGQGTQVTVSSDKTHTCPPCPAPEAAGGPSVFLFPPKPKDTLMISRTPEVTCVVVDVSHEDPEVKFNWYVDGVEVHNAKTKPREEQYNSTYRVVSVLTVLHQDWLNGKEYKCKVSNKALGAPIEKTISKAKGQPREPQVYTLPPSRDELTKNQVSLTCLVKGFYPSDIAVEWESNGQPENNYKTTPPVLDSDGSFLLYSKLTVDKSRWQQGNVFSCSVMHEALHNHYTQKSLSLSPGK
# chain 2: EVQLVESGGGLVQTGGSLRLSCAASGGTFSRDAMAWFRQVPGKEREFVALISWSGATTNYADSVKGRFAISRDNGKNTVYLQMNRLKPADTAIYYCAADRRPMGSRSYFEPTEYDDWGQGTQVTVSSGGGGSGGGGSGGGGSQVQLVESGGGLVQPGGSLRLSCATSGFTFRNNFMSWVRQAPGKGLEWVSTISYGGESTTYAESVKGRFTISRDNAKNTLYLQMNNLKPEDTAVYYCAKATSYDSIRSGSRGQGTQVTVSSGGGGSGGGGSGGGGSQVQLVESGGGLVQAGGSLTLSCAAPGRTFGTDVVGWFRQAPGKEREFVASISRSGDGIYYDDSVKGRFTISRNNAWNTVNLQMNSLKVEDTAVYYCAAGDGWSTYDYWGQGTQVTVSSGGGGSGGGGSGGGGSDKTHTCPPCPAPEAAGGPSVFLFPPKPKDTLMISRTPEVTCVVVDVSHEDPEVKFNWYVDGVEVHNAKTKPREEQYNSTYRVVSVLTVLHQDWLNGKEYKCKVSNKALGAPIEKTISKAKGQPREPQVYTLPPSRDELTKNQVSLTCLVKGFYPSDIAVEWESNGQPENNYKTTPPVLDSDGSFFLYSRLTVDKSRWQQGNVFSCSVMHEALHNHYTQKSLSLSPGK
# B2: DC00067 (other)
# chain 1: EVQLVESGGGLVQTGGSLRLSCAASGGTFSRDAMAWFRQVPGKEREFVALISWSGATTNYADSVKGRFAISRDNGKNTVYLQMNRLKPADTAIYYCAADRRPMGSRSYFEPTEYDDWGQGTQVTVSSGGGGSGGGGSGGGGSQVQLVESGGGLVQPGGSLRLSCATSGFTFRNNFMSWVRQAPGKGLEWVSTISYGGESTTYAESVKGRFTISRDNAKNTLYLQMNNLKPEDTAVYYCAKATSYDSIRSGSRGQGTQVTVSSDKTHTCPPCPAPEAAGGPSVFLFPPKPKDTLMISRTPEVTCVVVDVSHEDPEVKFNWYVDGVEVHNAKTKPREEQYNSTYRVVSVLTVLHQDWLNGKEYKCKVSNKALGAPIEKTISKAKGQPREPQVYTLPPSRDELTKNQVSLTCLVKGFYPSDIAVEWESNGQPENNYKTTPPVLDSDGSFLLYSKLTVDKSRWQQGNVFSCSVMHEALHNHYTQKSLSLSPGK
# chain 2: QVQLVESGGGLVQAGGSLTLSCAAPGRTFGTDVVGWFRQAPGKEREFVASISRSGDGIYYDDSVKGRFTISRNNAWNTVNLQMNSLKVEDTAVYYCAAGDGWSTYDYWGQGTQVTVSSGGGGSGGGGSGGGGSEVQLVESGGGLVQTGGSLRLSCAASGGTFSRDAMAWFRQVPGKEREFVALISWSGATTNYADSVKGRFAISRDNGKNTVYLQMNRLKPADTAIYYCAADRRPMGSRSYFEPTEYDDWGQGTQVTVSSGGGGSGGGGSGGGGSQVQLVESGGGLVQPGGSLRLSCATSGFTFRNNFMSWVRQAPGKGLEWVSTISYGGESTTYAESVKGRFTISRDNAKNTLYLQMNNLKPEDTAVYYCAKATSYDSIRSGSRGQGTQVTVSSDKTHTCPPCPAPEAAGGPSVFLFPPKPKDTLMISRTPEVTCVVVDVSHEDPEVKFNWYVDGVEVHNAKTKPREEQYNSTYRVVSVLTVLHQDWLNGKEYKCKVSNKALGAPIEKTISKAKGQPREPQVYTLPPSRDELTKNQVSLTCLVKGFYPSDIAVEWESNGQPENNYKTTPPVLDSDGSFFLYSRLTVDKSRWQQGNVFSCSVMHEALHNHYTQKSLSLSPGK
# B3: DC00064 (other)
# chain 1: EVQLVESGGGLVQTGGSLRLSCAASGGTFSRDAMAWFRQVPGKEREFVALISWSGATTNYADSVKGRFAISRDNGKNTVYLQMNRLKPADTAIYYCAADRRPMGSRSYFEPTEYDDWGQGTQVTVSSGGGGSGGGGSGGGGSQVQLVESGGGLVQPGGSLRLSCATSGFTFRNNFMSWVRQAPGKGLEWVSTISYGGESTTYAESVKGRFTISRDNAKNTLYLQMNNLKPEDTAVYYCAKATSYDSIRSGSRGQGTQVTVSSDKTHTCPPCPAPEAAGGPSVFLFPPKPKDTLMISRTPEVTCVVVDVSHEDPEVKFNWYVDGVEVHNAKTKPREEQYNSTYRVVSVLTVLHQDWLNGKEYKCKVSNKALGAPIEKTISKAKGQPREPQVYTLPPSRDELTKNQVSLTCLVKGFYPSDIAVEWESNGQPENNYKTTPPVLDSDGSFLLYSKLTVDKSRWQQGNVFSCSVMHEALHNHYTQKSLSLSPGK
# chain 2: QVQLVESGGGLVQPGGSLRLSCATSGFTFRNNFMSWVRQAPGKGLEWVSTISYGGESTTYAESVKGRFTISRDNAKNTLYLQMNNLKPEDTAVYYCAKATSYDSIRSGSRGQGTQVTVSSGGGGSGGGGSGGGGSQVQLVESGGGLVQAGGSLTLSCAAPGRTFGTDVVGWFRQAPGKEREFVASISRSGDGIYYDDSVKGRFTISRNNAWNTVNLQMNSLKVEDTAVYYCAAGDGWSTYDYWGQGTQVTVSSGGGGSGGGGSGGGGSEVQLVESGGGLVQTGGSLRLSCAASGGTFSRDAMAWFRQVPGKEREFVALISWSGATTNYADSVKGRFAISRDNGKNTVYLQMNRLKPADTAIYYCAADRRPMGSRSYFEPTEYDDWGQGTQVTVSSGGGGSGGGGSGGGGSDKTHTCPPCPAPEAAGGPSVFLFPPKPKDTLMISRTPEVTCVVVDVSHEDPEVKFNWYVDGVEVHNAKTKPREEQYNSTYRVVSVLTVLHQDWLNGKEYKCKVSNKALGAPIEKTISKAKGQPREPQVYTLPPSRDELTKNQVSLTCLVKGFYPSDIAVEWESNGQPENNYKTTPPVLDSDGSFFLYSRLTVDKSRWQQGNVFSCSVMHEALHNHYTQKSLSLSPGK
# B4: DC00066 (other)
# chain 1: EVQLVESGGGLVQTGGSLRLSCAASGGTFSRDAMAWFRQVPGKEREFVALISWSGATTNYADSVKGRFAISRDNGKNTVYLQMNRLKPADTAIYYCAADRRPMGSRSYFEPTEYDDWGQGTQVTVSSGGGGSGGGGSGGGGSQVQLVESGGGLVQPGGSLRLSCATSGFTFRNNFMSWVRQAPGKGLEWVSTISYGGESTTYAESVKGRFTISRDNAKNTLYLQMNNLKPEDTAVYYCAKATSYDSIRSGSRGQGTQVTVSSDKTHTCPPCPAPEAAGGPSVFLFPPKPKDTLMISRTPEVTCVVVDVSHEDPEVKFNWYVDGVEVHNAKTKPREEQYNSTYRVVSVLTVLHQDWLNGKEYKCKVSNKALGAPIEKTISKAKGQPREPQVYTLPPSRDELTKNQVSLTCLVKGFYPSDIAVEWESNGQPENNYKTTPPVLDSDGSFLLYSKLTVDKSRWQQGNVFSCSVMHEALHNHYTQKSLSLSPGK
# chain 2: QVQLVESGGGLVQPGGSLRLSCATSGFTFRNNFMSWVRQAPGKGLEWVSTISYGGESTTYAESVKGRFTISRDNAKNTLYLQMNNLKPEDTAVYYCAKATSYDSIRSGSRGQGTQVTVSSGGGGSGGGGSGGGGSEVQLVESGGGLVQTGGSLRLSCAASGGTFSRDAMAWFRQVPGKEREFVALISWSGATTNYADSVKGRFAISRDNGKNTVYLQMNRLKPADTAIYYCAADRRPMGSRSYFEPTEYDDWGQGTQVTVSSGGGGSGGGGSGGGGSQVQLVESGGGLVQAGGSLTLSCAAPGRTFGTDVVGWFRQAPGKEREFVASISRSGDGIYYDDSVKGRFTISRNNAWNTVNLQMNSLKVEDTAVYYCAAGDGWSTYDYWGQGTQVTVSSGGGGSGGGGSGGGGSDKTHTCPPCPAPEAAGGPSVFLFPPKPKDTLMISRTPEVTCVVVDVSHEDPEVKFNWYVDGVEVHNAKTKPREEQYNSTYRVVSVLTVLHQDWLNGKEYKCKVSNKALGAPIEKTISKAKGQPREPQVYTLPPSRDELTKNQVSLTCLVKGFYPSDIAVEWESNGQPENNYKTTPPVLDSDGSFFLYSRLTVDKSRWQQGNVFSCSVMHEALHNHYTQKSLSLSPGK
# Biological target: T1, human IL-2 receptor (IL-2Rα/IL-2Rβ/γc)
# Assay: cell-based or functional assay
Binder,"EC50 (nM) pSTAT5, NK, human PBMCs","EC50 (nM) pSTAT5, Treg, human PBMCs",Fold Max signal (% pSTAT5+) Treg/NK,"Max signal (% pSTAT5+), NK","Max signal (% pSTAT5+), Treg",fold EC50 NK/Treg
B1,0.0307 nM,< 0.1 pM,4 fold,22 % pSTAT5+,93 % pSTAT5+,> 307 fold
B2,0.217 nM,< 0.1 pM,2 fold,39 % pSTAT5+,95 % pSTAT5+,> 2180 fold
B3,0.186 nM,< 0.1 pM,2 fold,38 % pSTAT5+,94 % pSTAT5+,> 1860 fold
B4,0.178 nM,< 0.1 pM,4 fold,27 % pSTAT5+,96 % pSTAT5+,> 1780 fold
